Substitutions are numbered along the chain they refer to. Names may count otherwise.
Tests used:
[1] = target: S. aureus GudB (glutamate dehydrogenase) (S. aureus (endogenous in USA300 JE2)); assay: native gel or EMSA
[2] = target: the molecule itself; assay: SEC
[3] = target: the molecule itself; assay: native gel or EMSA

## S. aureus GudB (glutamate dehydrogenase) (enzyme)
[1]
  stoichiometry N: 3

B1: N-terminally His-tagged WT Bcd (B. subtilis Val/Leu/Ile dehydrogenase) (enzyme, UniProt P54531 1-364, looked up)
chain: MELFKYMEKYDYEQLVFCQDEQSGLKAIIAIHDTTLGPALGGTRMWTYENEEAAIEDALRLARGMTYKNAAAGLNLGGGKTVIIGDPRKDKNEEMFRAFGRYIQGLNGRYITAEDVGTTVEDMDIIHDETDYVTGISPAFGSSGNPSPVTAYGVYRGMKAAAKAAFGTDSLEGKTIAVQGVGNVAYNLCRHLHEEGANLIVTDINKQSVQRAVEDFGARAVDPDDIYSQDCDIYAPCALGATINDDTIKQLKAKVIAGAANNQLKETRHGDQIHEMGIVYAPDYVINAGGVINVADELYGYNAERALKKVEGIYGNIERVLEISQRDGIPAYLAADRLAEERIERMRRSRSQFLQNGHSVLSRR
[2]
  stoichiometry N: 6

B2: Bcd, native complex in B. subtilis NCIB3610 cell lysate (enzyme, B. subtilis (endogenous in NCIB3610), UniProt P54531 1-364, looked up)
chain: B1 chain
[3]
  stoichiometry N: 6

B3: N-terminally His-tagged Bcd(K80A) (enzyme, B. subtilis, UniProt P54531 1-364, looked up)
chain: B1 chain with K80A
[2]
  stoichiometry N: 6

From PMC12181280 (NPJ Biofilms and Microbiomes, 2025)
